Experimental data reported in patent US20210284711A1 (KAHR MEDICAL, published 2021).

Biological target: T1, human PDL1 (overexpressed on DLD1-PDL1 cells) (human, UniProt Q9NZQ7 19-290)
T1 construct: whole, on cells; also called B7H1; CD274
Assay: flow cytometry on DLD1-PDL1 cells, GMFI plotted against DSP105 conc. [ug/ml] (two-fold steps)
Description: Following, GMFI values were used to create a binding curve graph with a GraphPad Prism software (FIG. 10C). Taken together, both sides of the His-tagged DSP105_V17 (SEQ ID NO: 97), fusion protein, bind their relevant counterparts overexpressed on the surface of cells.

T1 sequence (Q9NZQ7 19-290): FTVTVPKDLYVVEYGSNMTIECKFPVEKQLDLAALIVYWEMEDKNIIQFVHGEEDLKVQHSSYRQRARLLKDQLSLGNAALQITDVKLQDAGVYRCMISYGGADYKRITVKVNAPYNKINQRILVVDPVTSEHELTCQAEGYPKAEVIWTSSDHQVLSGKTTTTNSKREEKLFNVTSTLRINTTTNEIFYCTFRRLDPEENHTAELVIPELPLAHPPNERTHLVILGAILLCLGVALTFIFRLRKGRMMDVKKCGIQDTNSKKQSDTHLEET

B1: N-terminal His-tagged DSP105_V17 (PD1-4-1BBL variant fusion protein) (other)
chain: HHHHHHDSPDRPWNPPTFSPALLVVTEGDNATFTCSFSNTSESFVLNWYRMSPSNQTDKLAAFPEDRSQPGQDSRFRVTQLPNGRDFHMSVVRARRNDSGTYLCGAISLAPKAQIKESLRAELRVTERRAEVPTAHPSPSPRPAGQGSAASPRLREGPELSPDDPAGLLDLRQGMFAQLVAQNVLLIDGPLSWYSDPGLAGVSLTGGLSYKEDTKELVVAKAGVYYVFFQLELRRVVAGEGSGSVSLALHLQPLRSAAGAAALALTVDLPPASSEARNSAFGFQGRLLHLSAGQRLGVHLHTEARARHAWQLTQGATVLGLFRVTPEIPAGLPSPRSE
notes: also called N-terminal His-tagged DSP105_var17
Question: B1 was tested. Which “EC50 (read off the curve)” value did it give?
Answer: ~0.9 µg/mL
